Residue numbers refer to the chain shown, from its start. Several values for one entry are separate records, joined by “and”; a condition that tells them apart may be missing. Equal values may be shown once.
T1: TP-51 peptide (human)
T1 construct: Synthetic peptide from Pepscan; also called synthetic TDP-43 peptide (TP-51)
T1 peptide: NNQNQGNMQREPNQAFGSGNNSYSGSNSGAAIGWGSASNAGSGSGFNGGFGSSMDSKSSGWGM

B1: ACI-7069-633B12-Ab1 (antibody, V domains shown)
VH: EVQLQQSGPELVKPGASVKISCKTSGFTFTEYSMHWVKQSHGKSLEWIGGINPNNGGTSYNQKFKGKATLTVDKSSSTAYMELRSLTSEDSAVYYCARESWGQGTTLTVSS
VL: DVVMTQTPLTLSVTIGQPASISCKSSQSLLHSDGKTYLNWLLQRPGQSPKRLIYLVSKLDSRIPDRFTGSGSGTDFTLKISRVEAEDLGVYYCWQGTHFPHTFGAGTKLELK
notes: also called murine parental antibody
B2: hACI-7069-633B12-Ab1_H33L24 (antibody, V domains shown)
VH: EVQLVQSGAEVKKPGATVKISCKVSGFTFTEYSMHWVQQAPGKGLEWMGGINPNNGGTSYNQKFQGRVTITADTSTDTAYMELSSLRSEDTAVYYCARESWGQGTTVTVSS
VL: DIVMTQSPLSLPVTPGEPASISCKSSQSLLHSDGKTYLNWLLQKPGQSPQRLIYLVSKLDSRVPDRFSGSGSGTDFTLKISRVEAEDVGVYYCWQGTHFPHTFGQGTKLEIK
B3: hACI-7069-633B12-Ab1_H33L27 (antibody, V domains shown)
VH: B2 VH
VL: B2 VL with W94F
B4: hACI-7069-633B12-Ab1_H32L27 (antibody, V domains shown)
VH: B2 VH with N54Q, G56A
VL: B2 VL with W94F
B5: hACI-7069-633B12-Ab1_H28L23 (antibody, V domains shown)
VH: B2 VH with Q65K
VL: B2 VL with I2V
B6: hACI-7069-633B12-Ab1_H27L23 (antibody, V domains shown)
VH: B2 VH with Q65K, A72V
VL: B2 VL with I2V
B7: hACI-7069-633B12-Ab1_H32L26 (antibody, V domains shown)
VH: B2 VH with N54Q, G56A
VL: B2 VL with G34A, W94F
B8: hACI-7069-633B12-Ab1_H28L22 (antibody, V domains shown)
VH: B2 VH with Q65K
VL: B2 VL with Q50K
B9: hACI-7069-633B12-Ab1_H28L24 (antibody, V domains shown)
VH: B2 VH with Q65K
VL: B2 VL
B10: hACI-7069-633B12-Ab1_H32L24 (antibody, V domains shown)
VH: B2 VH with N54Q, G56A
VL: B2 VL
B11: hACI-7069-633B12-Ab1_H33L26 (antibody, V domains shown)
VH: B2 VH
VL: B2 VL with G34A, W94F

Biological target: T1, TP-51 peptide
Assay: SPR Biacore 8K, mAb captured by anti-human antibody, TP-51 injected, single-cycle kinetics
Procedure: The instrument was primed with running buffer PBS-P+. Fc 1-2 of channels 1-8 (8K) were activated with a fresh solution of EDC/NHS (Amine Coupling Kit, 1:1 ratio of both reagents, GE Healthcare Life Sciences, BR-1006-33) at 10 μL/min for 420 sec and goat anti-human antibody (GE Healthcare Life Sciences, 29234600) was immobilized at 25 μg/mL in 10 mM sodium acetate pH 5 for 420 sec. Next, all Fc were quenched with 1 M ethanol amine (GE Healthcare Life Sciences, BR-1006-33), for 420 sec. Any non-covalently bound antibodies were removed by two regenerations with 10 mM Glycine-HCl pH 1.7 for 30 sec. Immobilization levels were evaluated following ethanolamine quenching (10000 RU for all channels).
Each cycle started with non-covalent capture of humanized variants which were diluted in running buffer to a final concentration of 2 μg/mL and injected for 60 sec with a flow rate of 10 μL/min. TDP-43 mAbs were captured on channels 1-8, leaving Fc 1 as a blank Fc. Capture levels were evaluated following a 120 sec stabilization period after each mAb injection and ranged from 300-500 RU.
TP-51 consists of amino acids 352-414 of TDP-43 (SEQ ID NO: 1). Injections of TP-51 peptide (Pepscan) were performed in single-cycle kinetics with increasing concentrations ranging from 1.2-100 nM prepared from serial 3-fold dilutions. Injections were performed with contact times of 300 sec/injection at a flow rate of 25 μL/min. A dissociation phase of 3600 sec followed the final injection. Sensor surface was regenerated by one injection of 10 mM Glycine-HCl pH 1.7 at a flow rate of 10 μL/min for 120 sec, followed by a stabilization period of 300 sec. Results obtained from single-cycle kinetics were double-referenced using the blank Fc 1 and buffer cycles and evaluated by Biacore 8K evaluation software with 1:1 kinetic fit model with RI and global Rmax. The following kinetic parameters were obtained: association rate constant (ka), dissociation rate constant (kd), affinity constant (KD) and saturation response (Rmax).
For B1, the Kd was 1500 pM, the koff was 9.8e-05 s⁻¹ and the kon was 67000 M⁻¹ s⁻¹. For B2, the Kd was 2200 pM, the koff was 0.00015 s⁻¹ and the kon was 70000 M⁻¹ s⁻¹. Binder B3 has a Kd of 800 pM, a koff of 0.00012 s⁻¹ and a kon of 150000 M⁻¹ s⁻¹. With B4 the Kd was 1000 pM, the koff was 0.00012 s⁻¹ and the kon was 120000 M⁻¹ s⁻¹. Work on B5 yielded a Kd of 1900 pM, a koff of 0.00013 s⁻¹ and a kon of 65000 M⁻¹ s⁻¹. B6 showed a Kd of 3300 pM, a koff of 0.00014 s⁻¹ and a kon of 42000 M⁻¹ s⁻¹. Binder B7 has a Kd of 1400 pM, a koff of 0.00016 s⁻¹ and a kon of 120000 M⁻¹ s⁻¹. B8 was tested, and the Kd was 3500 pM, the koff was 0.0002 s⁻¹ and the kon was 58000 M⁻¹ s⁻¹. Work on B9 yielded a Kd of 2000 pM, a koff of 0.00013 s⁻¹ and a kon of 66000 M⁻¹ s⁻¹. With B10 the Kd was 2000 pM, the koff was 0.00012 s⁻¹ and the kon was 64000 M⁻¹ s⁻¹. For B11, the Kd was 1600 pM, the koff was 0.00029 s⁻¹ and the kon was 160000 M⁻¹ s⁻¹.

The binders below were run against T2, soluble TDP-43 (human, UniProt Q13148 1-414) (assay: SPR Biacore 8K, soluble TDP-43 immobilized on CM5, mAb injected, single-cycle kinetics).
T2 construct: also called soluble full-length TDP-43; FL TDP-43
T2 sequence (Q13148 whole entry): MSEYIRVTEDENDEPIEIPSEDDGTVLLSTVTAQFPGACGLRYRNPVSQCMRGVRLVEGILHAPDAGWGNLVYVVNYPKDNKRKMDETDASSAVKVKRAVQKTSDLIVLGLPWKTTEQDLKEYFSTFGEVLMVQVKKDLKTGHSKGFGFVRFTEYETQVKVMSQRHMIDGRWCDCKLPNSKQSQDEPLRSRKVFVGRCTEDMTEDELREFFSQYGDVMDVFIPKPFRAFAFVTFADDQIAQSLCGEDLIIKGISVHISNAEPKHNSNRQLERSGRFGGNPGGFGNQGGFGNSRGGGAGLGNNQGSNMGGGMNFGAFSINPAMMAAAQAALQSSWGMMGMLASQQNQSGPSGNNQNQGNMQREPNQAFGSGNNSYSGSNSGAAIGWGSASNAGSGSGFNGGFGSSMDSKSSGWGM
Procedure: The instrument was primed with running buffer PBS-P+ and flow cells (Fc) 1 and 2 of channels 1-8 were activated with a fresh solution of EDC/NHS (Amine Coupling Kit, 1:1 ratio of both reagents, GE Healthcare Life Sciences, BR-1006-33) at 10 μL/min for 420 sec. Soluble TDP-43 (Selvita) was diluted in sodium acetate pH 4.5 to a final concentration of 5 μg/mL and injected for 900 sec with a flow rate of 5 μL/min on Fc 2. All flow cells were quenched with 1 M ethanol amine (GE Healthcare Life Sciences, BR-1006-33), at 10 μL/min for 420 sec. Immobilization levels after ethanolamine quenching were 680 RU on all eight channels. Prior to analysis, two Startup cycles were run. Increasing mAbs concentrations were injected in single-cycle kinetics ranging from 1.2 to 100 nM, prepared from a 3-fold serial dilution in running buffer, with a contact time of 300 sec and a dissociation time of 3600 sec at a flow rate of 30 μL/min. Each cycle was followed by one regeneration using 10 mM Glycine-HCl pH 1.7 with a contact time of 30 sec at 30 μL/min, followed by a stabilization period of 300 sec. Results obtained from single-cycle kinetics were double-referenced using the blank Fc 1 and buffer cycles and evaluated using Biacore 8K evaluation software using the 1:1 kinetic fit model with RI and global Rmax. The following kinetic parameters were obtained: association rate constant (ka), dissociation rate constant (kd), affinity constant (KD) and saturation response (Rmax).
In the case of B1, the Kd is reported as 328 pM, the koff is reported as 1.7e-05 s⁻¹ and the kon is reported as 55000 M⁻¹ s⁻¹. B2 gave a Kd of 471 pM, a koff of 1.3e-05 s⁻¹ and a kon of 30000 M⁻¹ s⁻¹. B3 was tested, and the Kd was 126 pM, the koff was 6.5e-06 s⁻¹ and the kon was 52000 M⁻¹ s⁻¹. B4 gave a Kd of 143 pM, a koff of 5.2e-06 s⁻¹ and a kon of 36000 M⁻¹ s⁻¹. B5 was tested, and the Kd was 806 pM, the koff was 2.6e-05 s⁻¹ and the kon was 32000 M⁻¹ s⁻¹. Binder B6 has a Kd of 925 pM, a koff of 2.2e-05 s⁻¹ and a kon of 24000 M⁻¹ s⁻¹. B7 gave a Kd of 563 pM, a koff of 1.7e-05 s⁻¹ and a kon of 33000 M⁻¹ s⁻¹. B8 showed a Kd of 1160 pM, a koff of 3.4e-05 s⁻¹ and a kon of 29000 M⁻¹ s⁻¹. With B9 the Kd was 531 pM, the koff was 1.7e-05 s⁻¹ and the kon was 37000 M⁻¹ s⁻¹. In the case of B10, the Kd is reported as 716 pM, the koff is reported as 1.5e-05 s⁻¹ and the kon is reported as 24000 M⁻¹ s⁻¹. In the case of B11, the Kd is reported as 220 pM, the koff is reported as 9e-06 s⁻¹ and the kon is reported as 43000 M⁻¹ s⁻¹.

Each binder was assayed against T3, human TDP-43 in CSF of a healthy donor (human, UniProt Q13148 1-414, limits assumed) (assay: SIMOA-based target engagement assay, unbound TDP-43 in human CSF pre-incubated with increasing antibody).
T3 construct: also called TDP-43 in human CSF
In the case of B3, the EC50 is reported as 0.0356 µg/mL and 0.237 nM.
